Measurements from patent publication US20080181886A1 (Genentech, published 2008).

T1: Murine APRIL (mouse, UniProt Q9D777 105-241, limits assumed)
T1 sequence (looked up): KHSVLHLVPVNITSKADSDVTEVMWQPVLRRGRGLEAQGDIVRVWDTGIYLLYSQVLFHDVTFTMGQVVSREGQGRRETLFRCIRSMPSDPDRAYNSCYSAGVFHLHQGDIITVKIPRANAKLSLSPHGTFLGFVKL


Legend:
[1] = target: T1, Murine APRIL; assay: shotgun scan, phage display
Text: Phage from each of the libraries described above were subjected to rounds of binding selection against APRIL, BAFF, or anti-tag antibody (3C8:2F4 Genentech, Inc.) immobilized on 96-well Nunc Maxisorp immunoplates (Sidhu, 2001). BSA-coated wells were used to determine non-specific background binding. Phage eluted from each target were propagated in E. coli XL1-Blue in the presence of M13K07 helper phage; amplified phage were used for selection against the same target in the […] round. […] Enrichment was calculated from the ratio of the phage titer eluted from the target-coated wells to the phage titer eluted from the BSA-coated wells. Individual clones from each library and selection target were then grown in a 96-well format in 400 ul of 2YT medium supplemented with carbenicillin and KO7 helper phage. […] Sequences of acceptable quality were translated and aligned. For APRIL-binding, 71, 40, and 54 sequences were analyzed from libraries one, two and three, respectively. For BAFF-binding, 70, 50, and 53 sequences were analyzed for libraries one, two and three, respectively. For the display selection, a minimum of 47 sequences were analyzed for each library. […] F values describe the effect of mutation on target binding, while accounting for differences in display efficiencies, with values >1 representing deleterious mutations and those <1 representing favorable mutations.

[2] = target: human BAFF (human, UniProt Q9Y275 82-285, limits assumed); assay: NNS library, phage display;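 also: ligand versus display occurrence-to-degeneracy ratio and higher means enriched by binding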
Chain of human BAFF (Q9Y275 82-285 limits assumed): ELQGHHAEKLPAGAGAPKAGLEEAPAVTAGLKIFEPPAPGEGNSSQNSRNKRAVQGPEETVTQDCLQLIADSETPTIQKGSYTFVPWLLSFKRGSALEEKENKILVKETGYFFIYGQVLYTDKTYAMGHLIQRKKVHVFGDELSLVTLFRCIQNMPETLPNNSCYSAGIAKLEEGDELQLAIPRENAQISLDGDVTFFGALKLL
Method: (§1) This new phage library was subjected to sorting against either BAFF, APRIL or the display target antibody. After 3 rounds of sorting, approximately 48 clones were picked from each selection and the DNA sequences of the phage clones were determined. […] The normalized F′ value corrects for display bias and is calculated as the percent occurrence to percent degeneracy ratio for ligand selection divided by the percent occurrence to percent degeneracy ratio for display efficiency. Percent occurrence is calculated by dividing the number of times a particular amino acid appeared at a particular position by the total number of amino acids sequenced at that position followed by multiplying by 100. Percent degeneracy is calculated by dividing the degeneracy in code for a particular amino acid divided by the total degeneracy possible at that position followed by multiplying by 100 (e.g., if only A, G and I were selected, total degeneracy possible would be 5).

[3] = target: T1, Murine APRIL; assay: NNS library, phage display;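 also: ligand versus display occurrence-to-degeneracy ratio and higher means enriched by binding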
Method: as §1

Row | Binder | F (APRIL) [1] | F' BAFF [2] | F' APRIL [3]
1 | SLSCRKEQGKFYDHLLRDCISCASICGQHPKQCAYFCANKLR (receptor, phage library variant, format as m9) [TACI_d2 E105A] | 1.7 |  | 
2 | SLSCRKEQGKGYDHLLRDCISCASICGQHPKQCAYFCENKLR (receptor, phage library variant, format as m9) [TACI_d2 F78G] |  | 0 | 0
3 | SLSCRKEQGKFYDHLLRDCISCASICGQHPKQCAYFCEDKLR (receptor, phage library variant, format as m9) [TACI_d2 N106D] | 1.2 |  | 
4 | SLSCRKEQGKFYDHLLRDCISCASICGQHPKQCAYSCENKLR (receptor, phage library variant, format as m9) [TACI_d2 F103S] | 5.8 |  | 
5 | SLSCRKEQGKWYDHLLRDCISCASICGQHPKQCAYFCENKLR (receptor, phage library variant, format as m9) [TACI_d2 F78W] |  | 0 | 0
6 | SLSCRKEQGKEYDHLLRDCISCASICGQHPKQCAYFCENKLR (receptor, phage library variant, format as m9) [TACI_d2 F78E] |  | 5 | 0
7 | SLSCRKEQGKRYDHLLRDCISCASICGQHPKQCAYFCENKLR (receptor, phage library variant, format as m9) [TACI_d2 F78R] |  | 0 | 0
8 | SLSCRKEQGKFYDHLLRDCISCASICGQHPKACAYFCENKLR (receptor, phage library variant, format as m9) [TACI_d2 Q99A] | 1.9 |  | 
9 | SLSCRKEQGKFYDHLLRDCISCASICGQHPEQCAYFCENKLR (receptor, phage library variant, format as m9) [TACI_d2 K98E] | 6.9 |  | 
10 | SLSCRKEQGKFYDDLLRDCISCASICGQHPKQCAYFCENKLR (receptor, phage library variant, format as m9) [TACI_d2 H81D] | 0.9 |  | 
11 | SLSCRKEQGKFYDHLARDCISCASICGQHPKQCAYFCENKLR (receptor, phage library variant, format as m9) [TACI_d2 L83A] | 31 |  | 
12 | SLSCRKEQGKFYDHLLRDCISCASICGQAPKQCAYFCENKLR (receptor, phage library variant, format as m9) [TACI_d2 H96A] | 12 |  | 
13 | SLSCRKEQGKKYDHLLRDCISCASICGQHPKQCAYFCENKLR (receptor, phage library variant, format as m9) [TACI_d2 F78K] |  | 0 | 0
14 | SLSCRKEQGKHYDHLLRDCISCASICGQHPKQCAYFCENKLR (receptor, phage library variant, format as m9) [TACI_d2 F78H] |  | 0 | 0
15 | SLSCREEQGKFYDHLLRDCISCASICGQHPKQCAYFCENKLR (receptor, phage library variant, format as m9) [TACI_d2 K73E] | 7.7 |  | 
16 | SLSCRKEQGKFYDHLLPDCISCASICGQHPKQCAYFCENKLR (receptor, phage library variant, format as m9) [TACI_d2 R84P] | > 22 |  | 0
17 | SLSCRKEQGKFYDHLLRDCISCASICGQHPAQCAYFCENKLR (receptor, phage library variant, format as m9) [TACI_d2 K98A] | 3.5 |  | 
18 | SLSCRKEQAKFYDHLLRDCISCASICGQHPKQCAYFCENKLR (receptor, phage library variant, format as m9) [TACI_d2 G76A] | 1.6 |  | 
19 | SLSCRKEQGKFYDHLLRDCISCASICGAHPKQCAYFCENKLR (receptor, phage library variant, format as m9) [TACI_d2 Q95A] | 6.6 |  | 
20 | SLSCRKEQGKMYDHLLRDCISCASICGQHPKQCAYFCENKLR (receptor, phage library variant, format as m9) [TACI_d2 F78M] |  | 1 | 0
21 | SLSCRKEQGKFYDHLLGDCISCASICGQHPKQCAYFCENKLR (receptor, phage library variant, format as m9) [TACI_d2 R84G] | 1.8 |  | 1
22 | SLSCRKEQGKDYDHLLRDCISCASICGQHPKQCAYFCENKLR (receptor, phage library variant, format as m9) [TACI_d2 F78D] |  | 0 | 0

Row | Binder | F (APRIL) [1] | F' BAFF [2] | F' APRIL [3]
23 | SLSCRKEQGKNYDHLLRDCISCASICGQHPKQCAYFCENKLR (receptor, phage library variant, format as m9) [TACI_d2 F78N] |  | 0 | 0
24 | SLSCRKEQGKFYDHLLRDCISCASICGQHPKQCAYFCENELR (receptor, phage library variant, format as m9) [TACI_d2 K107E] | 2.1 |  | 
25 | SLSCRKEQGKFYDALLRDCISCASICGQHPKQCAYFCENKLR (receptor, phage library variant, format as m9) [TACI_d2 H81A] | 2 |  | 
26 | SLSCRKEQGKFSDHLLRDCISCASICGQHPKQCAYFCENKLR (receptor, phage library variant, format as m9) [TACI_d2 Y79S] | 31 |  | 0
27 | SLSCRKEQGKFYDHLLRDCISCASICGQHPKQCAYFCENKPR (receptor, phage library variant, format as m9) [TACI_d2 L108P] | 1.4 |  | 
28 | SLSCRKEQGKFYDHLLRDCISCASICGEHPKQCAYFCENKLR (receptor, phage library variant, format as m9) [TACI_d2 Q95E] | 21 |  | 
29 | SLSCRKEQGKFYDHLPRDCISCASICGQHPKQCAYFCENKLR (receptor, phage library variant, format as m9) [TACI_d2 L83P] | > 20 |  | 
30 | SLSCRKEQGKQYDHLLRDCISCASICGQHPKQCAYFCENKLR (receptor, phage library variant, format as m9) [TACI_d2 F78Q] |  | 0 | 0
31 | SLSCRKEQGKFYDHLLRDCISCASICGQDPKQCAYFCENKLR (receptor, phage library variant, format as m9) [TACI_d2 H96D] | > 24 |  | 
32 | SLSCRKEQGKFYDHLLRDCISCASCCGQHPKQCAYFCENKLR (receptor, phage library variant, format as m9) [TACI_d2 I92C] |  | 0 | 0
33 | SLSCRKEQGKFYDHLLRDCISCASICGQHPKQCASFCENKLR (receptor, phage library variant, format as m9) [TACI_d2 Y102S] | 1.5 |  | 
34 | SLSCRKEQGKTYDHLLRDCISCASICGQHPKQCAYFCENKLR (receptor, phage library variant, format as m9) [TACI_d2 F78T] |  | 0 | 1
35 | SLSCRKEQGKPYDHLLRDCISCASICGQHPKQCAYFCENKLR (receptor, phage library variant, format as m9) [TACI_d2 F78P] |  | 0 | 0
36 | SLSCRKEQGKLYDHLLRDCISCASICGQHPKQCAYFCENKLR (receptor, phage library variant, format as m9) [TACI_d2 F78L] |  | 0 | 0
37 | SLSCRKEQGKIYDHLLRDCISCASICGQHPKQCAYFCENKLR (receptor, phage library variant, format as m9) [TACI_d2 F78I] |  | 10 | 7
38 | SLSCRKEQGKCYDHLLRDCISCASICGQHPKQCAYFCENKLR (receptor, phage library variant, format as m9) [TACI_d2 F78C] |  | 0 | 0
39 | SLSCRKEQGKFYDHLLRDCISCAAICGQHPKQCAYFCENKLR (receptor, phage library variant, format as m9) [TACI_d2 S91A] | 2.1 |  | 
40 | SLSCRKEQGKFYDHLLRDCIACASICGQHPKQCAYFCENKLR (receptor, phage library variant, format as m9) [TACI_d2 S88A] | 3.8 |  | 
41 | SLSCRKEQGAFYDHLLRDCISCASICGQHPKQCAYFCENKLR (receptor, phage library variant, format as m9) [TACI_d2 K77A] | 1 |  | 
42 | SLSCRKEQGKYYDHLLRDCISCASICGQHPKQCAYFCENKLR (receptor, phage library variant, format as m9) [TACI_d2 F78Y] |  | 41 | 61
43 | SLSCRKEQGKFYDHLLRDCISCASICGPHPKQCAYFCENKLR (receptor, phage library variant, format as m9) [TACI_d2 Q95P] | > 39 |  | 
44 | SLSCRKEQGKFYDHLLRDCISCASICGQHAKQCAYFCENKLR (receptor, phage library variant, format as m9) [TACI_d2 P97A] | > 20 |  | 
